Experimental data published in patent US20230201322A1.

Assays:
Details in all cases: remark: other sources report otherwise
[1] = biological target: T1, HLA-A*0201 molecule expressed on the human tumoral cell T2 (human); experiment: T2 cell HLA-A2 FACS (BB7.2-PE); ratio of 20% concentrations against HIV pol 589-597
[2] = biological target: T1, HLA-A*0201 molecule expressed on the …; experiment: T2 cell HLA-A2 FACS (BB7.2-PE), peptide 0.1 µM
[3] = biological target: T1, HLA-A*0201 molecule expressed on the …; experiment: T2 cell HLA-A2 FACS (BB7.2-PE), peptide 100 µM
[4] = biological target: T1, HLA-A*0201 molecule expressed on the …; experiment: T2 cell HLA-A2 FACS (BB7.2-PE), peptide 1 µM
[5] = biological target: T1, HLA-A*0201 molecule expressed on the …; experiment: T2 cell HLA-A2 FACS (BB7.2-PE), peptide titration
[6] = biological target: T1, HLA-A*0201 molecule expressed on the …; experiment: T2 cell HLA-A2 FACS (BB7.2-PE), peptide 10 µM

## VVLGVVFGI [reference human peptide derived from ERBB2, ERBB2-3H (…)]
[1]
  Relative affinity: 0.45
[2]
  HLA-A2 labelling as % of reference peptide HIV pol 589-597 at 100 µM: -12.6%
[3]
  HLA-A2 labelling as % of reference peptide HIV pol 589-597 at 100 µM: 196%
[4]
  HLA-A2 labelling as % of reference peptide HIV pol 589-597 at 100 µM: -24%
[5]
  Conc. inducing 20% of HLA-A2 expression: 16.3 µM
[6]
  HLA-A2 labelling as % of reference peptide HIV pol 589-597 at 100 µM: 11.9%

## VLLGVVFGV [antigenic peptide ERBB2-3B2 (…)]
[1]
  Relative affinity: 0.19
[2]
  HLA-A2 labelling as % of reference peptide HIV pol 589-597 at 100 µM: -14.6%
[3]
  HLA-A2 labelling as % of reference peptide HIV pol 589-597 at 100 µM: 336%
[4]
  HLA-A2 labelling as % of reference peptide HIV pol 589-597 at 100 µM: 1.51%
[5]
  Conc. inducing 20% of HLA-A2 expression: 6.9 µM
[6]
  HLA-A2 labelling as % of reference peptide HIV pol 589-597 at 100 µM: 57%
